Results reported in patent publication US6919086B1, “Graminae pollen allergen mutants for specific immunotherapy, and production and use of the same” (Merck Patent Gesellschaft mit, priority 1997, dated 2005).
Entries after “also recorded” stand apart in the source; their conditions may differ. Where two headings read alike, the source gives them in different places.

Experiments:
[1] = target: IgE antibodies of the allergic patient serum pool We 6/97; test: EAST inhibition, serum pool We 6/97
[2] = target: IgE antibodies of the allergic patient serum pool Bor 18/100 (20 donors); test: EAST inhibition, serum pool Bor 18/100
[3] = system: IgE antibodies of allergic patients; test: EAST inhibition test (IgE reactivity / allergenicity); assay type: binding, human; details: for IC50: read-out: Inhibition value 50% (concentration of the inhibitor at 50% inhibition); for Allergenic potency (Prel) 25%: relative to native Phl p 5b at 25% inhibition; for Allergenic potency (Prel) 50%: relative to native Phl p 5b at 50% inhibition
Procedure: The effects of the induced mutations on the allergenicity, i.e. the ability to bind to the IgE antibodies of allergic patients, of the modified recombinant allergens is determined qualitatively and quantitatively by means of the EAST inhibition test. […] The extent of the immunochemical relatedness (cross reactivity) can also be quantified. This EAST inhibition test only takes the reaction with IgE antibodies into account.
The binding of the allergens by the IgE antibodies is the basic prerequisite for the allergen-specific activation of the effector cells (mast cells, basophils, inter alia) in type I allergy. The allergen-specific inhibition of the enzyme/allergen sorbent test (EAST) is the best means for qualitatively and quantitatively recording the binding of the allergens to IgE anti-bodies. The EAST inhibition test is carried out as follows. Microtitre plates are coated with allergen (natural or recombinant Ph1 p 5 or Ph1 p 5b) (1 μg/ml). After the unbound allergen molecules have been removed by washing, non-specific plastic binding sites are blocked with bovine serum albumin (0.5%). […] from allergic patients, as a representative pool of 10-30 donors or as an individual serum, is incubated, in a suitable dilution, with the allergen-coated microtritre plates. The bound allergen-specific IgE antibodies are quantified using enzyme-coupled anti-IgE antibodies (e.g. alk. phosphatase-a-IgE antibodies). This binding is inhibited by soluble allergen or the substance to be tested (allergen mutants) in dependence on the concentration. The inhibition curve obtained with the purified natural allergen Ph1 p 5b is used as the reference.

[4] = system: Phl p 5b-reactive T cell lines (TCLs) from allergic patients; test: Proliferative reaction of Phl p 5b-reactive oligoclonal T cell lines ([3H]-thymidine incorporation); assay type: cell-based, human
Procedure: In the second phase, oligoclonal T cell lines, which have been established by repeated stimulation with the relevant allergens, are employed for the testing. Once again, only those modified recombinant allergens which at least give rise to a stimulation index (SI) of 50% of the SI of the wild type are taken into consideration.
(§1) 40 ml of heparinized blood were obtained from each patient. Peripheral mononuclear cells (PBMC) were then isolated from this blood sample by means of the customary method using density gradient centrifugation. Analogous cell isolations were carried out at a later stage when it was necessary to obtain irradiated autologous antigen-presenting cells (APC) for characterizing the TCL and TCC further. After the PBMC had been counted, TCL which reacted to group 5 allergens in vitro were established as follows and as has already been described in detail elsewhere (Lit. 1): in each well of 24-well microculture plates, from 1.5 to 2.0×10^6 PBMC in 1 ml of culture medium (UltraCulture) were stimulated for 7 days in the added presence of natural Phl p5 allergens (in each case 10 μg/well) which had been purified by immunoaffinity chromatography. A total of from 8 to 10 of these cultures were set up. The isolation of Phl p5 by means of immunoaffinity chromatography has been described in detail (Lit. 2). At the end of the 7 days of culture, IL-2 (from 10 to 20 IU/well) was added to the cell cultures for a further 5 to 7 days. All the individual cultures were then pooled and the T cell blasts were enriched by means of density gradient centrifugation; the TCL which were obtained were then tested in a specific lymphocyte proliferation test (see Lit. 1 as well). For this, 2×10^4/ml TCL blasts were in each case cultured with 5×10^4/ml irradiated autologous APCs in triplicate samples in 96-well microculture plates. 10-20 μg of Phl p5 allergen were added as the specific antigen stimulus. After 56 hours of incubation, ^3H-labelled thymidine (1 μCi/well) was pipetted into the microcultures. After a further 16 hours, the radioactivity which had been incorporated into the proliferating T cell blasts was measured in a beta counter (Matrix 96). The results were calculated, as the arithmetic mean of the multiple samples, in counts per minute (cpm). The criterion for the quality of the TCL was the stimulation index, which was obtained by relating the cpm values with Phl p5 addition to those without Phl p5 addition.
The oligoclonal T cell lines (TCLs) from 8 patients who were allergic to grass pollen (see Ex. 1) were established by repeated activation with natural Ph1 p 5b (a+b) or recombinant rPh1 p 5b or 5a+5b.
The proliferative reaction of these TCLs was tested using the rPh1 p 5b mutants (FIG. 10).

[5] = system: Phl p 5b-reactive T cell clones (TCCs) from allergic patients; test: Proliferative reaction of Phl p 5b-reactive T cell clones ([3H]-thymidine incorporation); assay type: cell-based, human; details: final concentration 0.3 μM
Procedure: as §1
After a TCL had been cloned (see below), the specificity of the isolated TCCs were determined as has just been described. Stimulation indices of at least 5 were rated as being positive for the TCCs. The determination of T cell epitopes for defining the T cell-reactive regions on group 5 allergens was also carried out using specific proliferation tests, with 1-2 μg of synthesized dodecapeptide/ml being used for this purpose in each case (see below).
The reactivity of the recombinant Ph1 p 5b mutants was tested on established T cell clones (TCCs) of known specificity. The TCCs derive from patients who are allergic to grass pollen (see Ex. 1) and are directed against the T cell-reactive regions A (FIG. 7), B (FIG. 8) and C (FIG. 9). The T cell reactivity was measured by stimulating the clones to proliferate.

[6] = allergic patient serum pool Bor 18/100
[7] = allergic patient serum pool We 6/97
[8] = individual allergic patient serum II/3
[9] = individual allergic patient serum II/12
[10] = individual allergic patient serum II/17
[11] = primary stimulator n Phl p 5, secondary activator 0.3 μM
[12] = primary stimulator r Phl p 5b, secondary activator 0.3 μM

B1: rPhl p 5b deletion mutant DM3 (deletion A154-T177, A220T) (protein)
chain: ADAGYAPATPAAAGAAAGKATTEEQKLIEDINVGFKAAVAAAASVPAADKFKTFEAAFTSSSKAAAAKAPGLVPKLDAAYSVAYKAAVGATPEAKFDSFVASLTEALRVIAGALEVHAVKPVTEEPGMAKIPAGELQIIDKIDAAFKVAATAAGGAYDTYKCIPSLEAAVKQAYAATVAAAPQVKYAVFEAALTKTITAMSEVQKVSQPATGAATVAAGAATTAAGAASGAATVAAGGYKV
IC50 [1]: 0.029 µM | allergenic potency (Prel) at 25% inhibition (relative to native Phl p 5b) [1]: 0.099 | allergenic potency (Prel) at 50% inhibition (relative to native Phl p 5b) [1]: 0.002 | inhibition value (inhibitor concentration at 25% inhibition) [1]: 5.1e-09 mol/L | IC50 [2]: 4.1 µM | allergenic potency (Prel) at 25% inhibition (relative to native Phl p 5b) [2]: 0.028 | allergenic potency (Prel) at 50% inhibition (relative to native Phl p 5b) [2]: 0.0001 | inhibition value (inhibitor concentration at 25% inhibition) [2]: 1.2e-09 mol/L | Allergenicity / IgE reactivity, overall assessment (in words) ([3]; all serum pools and individual sera, Prel values): marked reduction in allergenicity; also recorded: greatly reduced, it is still detectable | Inhibition value 25% (concentration of the inhibitor at 25% inhibition) [3, 6]: 1.2e-09 mol/L | IC50 [3, 6]: 4.1 µM | Inhibition value 25% (concentration of the inhibitor at 25% inhibition) [3, 7]: 5.1e-09 mol/L | IC50 [3, 7]: 0.029 µM | Inhibition value 25% (concentration of the inhibitor at 25% inhibition) [3, 8]: 1.1e-06 mol/L | IC50 [3, 8]: 32000 µM | Inhibition value 25% (concentration of the inhibitor at 25% inhibition) [3, 9]: 4.5e-09 mol/L | IC50 [3, 9]: 100 µM | Inhibition value 25% (concentration of the inhibitor at 25% inhibition) [3, 10]: 5.6e-09 mol/L | IC50 [3, 10]: 0.05 µM | Allergenic potency (Prel) 25% ([3]; individual serum II/3): 0.0004 | Allergenic potency (Prel) 25% ([3]; individual serum II/12): 0.012 | Allergenic potency (Prel) 25% ([3]; individual serum II/17): 0.038 | Allergenic potency (Prel) 25% ([3]; serum pool Bor 18/100): 0.028 | Allergenic potency (Prel) 25% ([3]; serum pool We 6/97): 0.099 | Allergenic potency (Prel) 50% ([3]; individual serum II/3): 1.8 × 10^−7 | Allergenic potency (Prel) 50% ([3]; individual serum II/12): 5.7 × 10^−5 | Allergenic potency (Prel) 50% ([3]; individual serum II/17): 0.0005 | Allergenic potency (Prel) 50% ([3]; serum pool Bor 18/100): 0.0001 | Allergenic potency (Prel) 50% ([3]; serum pool We 6/97): 0.0020 | EAST inhibition curve / inhibitory effect (in words) ([3]; serum pool Bor 18/100 (20 donors), FIG. 1): markedly decreased inhibitory effect | Allergenicity from EAST inhibition curves (in words) ([3]; serum pool We 6/97 and individual sera II3, II12, II17, FIGS. 2-5): greatly reduced allergenicity | Proliferative reaction of TCLs (in words) ([4]; TCLs from 8 patients allergic to grass pollen): strong specific stimulation with most of the TCLs | Incorporation of [3H]-thymidine into TCL 2 Eic (stimulation index class) [4, 11]: + (1-2 (+)) | Incorporation of [3H]-thymidine into TCL 4 Mer (stimulation index class) [4, 11]: ++ (5-10 (++)) | Incorporation of [3H]-thymidine into TCL 5 17.4 (stimulation index class) ([4]; primary stimulator r Phl p 5, secondary activator 0.3 μM): ++ (5-10 (++)) | Incorporation of [3H]-thymidine into TCL 6 Mah (stimulation index class) ([4]; primary stimulator r Phl p 5a, r Phl p 5b, secondary activator 0.3 μM): +++ (>10 (+++)) | Incorporation of [3H]-thymidine into TCL 7 19.2 (stimulation index class) [4, 12]: +++ (>10 (+++)) | Incorporation of [3H]-thymidine into TCL 8 20.1 (stimulation index class) [4, 12]: +++ (>10 (+++)) | Incorporation of [3H]-thymidine into TCC JR 13 (stimulation index class) ([5]; T cell-reactive region A): +++ (>10 (+++)) | Incorporation of [3H]-thymidine into TCC JR 15 (stimulation index class) ([5]; T cell-reactive region A): +++ (>10 (+++)) | Incorporation of [3H]-thymidine into TCC DW8 (stimulation index class) ([5]; T cell-reactive region B): + (1-2 (+)) | Incorporation of [3H]-thymidine into TCC UZH2 (stimulation index class) ([5]; T cell-reactive region B): +++ (>10 (+++)) | Incorporation of [3H]-thymidine, stimulation index SI, 1st exp. ([5]; T cell-reactive region C): 9.8 | Incorporation of [3H]-thymidine, stimulation index SI, 2nd exp. ([5]; T cell-reactive region C): 6.9 | Incorporation of [3H]-thymidine, stimulation index SI, 3rd exp. ([5]; T cell-reactive region C): 4.4 | Incorporation of [3H]-thymidine, stimulation index class (last column, no head) ([5]; T cell-reactive region C): ++ (5-10 (++))
